This note sets out measurements from paper PMC4564277, “Biochemical and Structural Insights into the Mechanism of DNA Recognition by Arabidopsis [sequence] INSENSITIVE3” (PLoS ONE, 2015).

Changes are numbered by the printed parent chain.

Data set [1] addresses T1, EIN3 82-352 (optimal DBD) (Arabidopsis thaliana, UniProt O24606 82-352).
T1 sequence: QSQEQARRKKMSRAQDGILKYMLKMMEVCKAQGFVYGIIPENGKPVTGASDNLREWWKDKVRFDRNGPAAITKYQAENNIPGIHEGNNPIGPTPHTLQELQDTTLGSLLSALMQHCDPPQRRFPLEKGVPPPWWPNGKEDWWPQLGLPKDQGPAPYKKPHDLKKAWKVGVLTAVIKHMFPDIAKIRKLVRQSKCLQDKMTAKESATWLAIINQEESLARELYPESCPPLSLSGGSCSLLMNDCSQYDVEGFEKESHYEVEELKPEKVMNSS
Description: EMSA; EMSA: 1 nM biotin probe, 10 mM Tris-HCl pH 7.5, 40 mM KCl, 3 mM MgCl2, 1 mM EDTA, 10% glycerol, 1 mM DTT, 1 ug poly(dI-dC) in 20 uL, room temperature, 30 min. The following applies: protein: recombinant, tags: N-terminal His6 (pET-28a), chain copies: 2. On the technique in general: A gel shift assay detects complexes by their altered migration in electrophoresis.

The target of data set [2] is T1, EIN3 82-352 (optimal DBD). The data set is described as above. Conditions: protein: recombinant; tags: N-terminal His6 (pET-28a); chain copies: 2; label: 3' biotin on forward strand; blunt.
The target in data set [3] is T1, EIN3 82-352 (optimal DBD). Description: EMSA; tighter than ERF1; EMSA: 1 nM biotin probe, 10 mM Tris-HCl pH 7.5, 40 mM KCl, 3 mM MgCl2, 1 mM EDTA, 10% glycerol, 1 mM DTT, 1 ug poly(dI-dC) in 20 uL, room temperature, 30 min. The following applies: protein: recombinant; tags: N-terminal His6 (pET-28a); chain copies: 2; label: 3' biotin on forward strand; blunt.
Data set [4] deals with the molecule itself. Description: SEC-MALS; Superdex 200 analytical column, 1 ml/min, 10 mM Tris–HCl pH 7.5, 100 mM NaCl, 1 mM DTT, 4°C; no DNA. Background: Size exclusion chromatography separates by hydrodynamic size, large species first.
In a further data set the target is T2, EIN3 68-352 (Arabidopsis thaliana, UniProt O24606 68-352).
T2 sequence: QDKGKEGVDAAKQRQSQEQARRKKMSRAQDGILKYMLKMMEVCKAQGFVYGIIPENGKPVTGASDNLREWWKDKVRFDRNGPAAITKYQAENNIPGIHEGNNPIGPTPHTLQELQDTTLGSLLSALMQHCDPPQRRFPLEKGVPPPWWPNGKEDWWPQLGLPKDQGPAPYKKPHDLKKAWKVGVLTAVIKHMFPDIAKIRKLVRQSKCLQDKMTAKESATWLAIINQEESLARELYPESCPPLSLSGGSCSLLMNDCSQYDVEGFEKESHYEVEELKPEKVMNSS
Description: EMSA; EMSA: 1 nM biotin probe, 10 mM Tris-HCl pH 7.5, 40 mM KCl, 3 mM MgCl2, 1 mM EDTA, 10% glycerol, 1 mM DTT, 1 ug poly(dI-dC) in 20 uL, room temperature, 30 min. Conditions: protein: recombinant; tags: N-terminal His6 (pET-28a); chain copies: 2; label: 3' biotin on forward strand; blunt.

A further data set deals with T3, EIN3 91-352 (Arabidopsis thaliana, UniProt O24606 91-352).
T3 sequence: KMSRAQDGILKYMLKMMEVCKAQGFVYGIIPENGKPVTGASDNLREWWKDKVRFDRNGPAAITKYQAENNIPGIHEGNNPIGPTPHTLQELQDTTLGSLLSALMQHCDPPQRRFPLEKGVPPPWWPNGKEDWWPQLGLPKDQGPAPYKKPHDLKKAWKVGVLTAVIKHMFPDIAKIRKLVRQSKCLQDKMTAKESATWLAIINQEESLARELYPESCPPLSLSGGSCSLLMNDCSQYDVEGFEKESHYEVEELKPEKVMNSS
The description is as above. The following applies: protein: recombinant; tags: N-terminal His6 (pET-28a); chain copies: 2; label: 3' biotin on forward strand; blunt.

Another data set addresses T4, EIN3 98-352 (Arabidopsis thaliana, UniProt O24606 98-352).
T4 sequence: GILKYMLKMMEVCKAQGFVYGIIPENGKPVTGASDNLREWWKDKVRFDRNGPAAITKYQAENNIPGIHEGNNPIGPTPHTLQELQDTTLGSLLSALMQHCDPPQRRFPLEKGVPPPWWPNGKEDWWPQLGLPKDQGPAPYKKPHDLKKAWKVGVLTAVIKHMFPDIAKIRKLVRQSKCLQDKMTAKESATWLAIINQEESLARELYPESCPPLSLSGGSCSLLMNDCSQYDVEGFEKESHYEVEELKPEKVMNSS
The data set is described as above. Conditions: protein: recombinant; tags: N-terminal His6 (pET-28a); chain copies: 2; label: 3' biotin on forward strand; blunt.

For a further data set, the target named is T5, EIN3 82-352 P216S (Arabidopsis thaliana, UniProt O24606 82-352, P216S).
T5 sequence: T1 sequence with P135S
The data set is described as above. Conditions: protein: recombinant; tags: N-terminal His6 (pET-28a); chain copies: 2; label: 3' biotin on forward strand; blunt.

A further data set deals with T6, EIN3 1-352 (Arabidopsis thaliana, UniProt O24606 1-352).
T6 sequence: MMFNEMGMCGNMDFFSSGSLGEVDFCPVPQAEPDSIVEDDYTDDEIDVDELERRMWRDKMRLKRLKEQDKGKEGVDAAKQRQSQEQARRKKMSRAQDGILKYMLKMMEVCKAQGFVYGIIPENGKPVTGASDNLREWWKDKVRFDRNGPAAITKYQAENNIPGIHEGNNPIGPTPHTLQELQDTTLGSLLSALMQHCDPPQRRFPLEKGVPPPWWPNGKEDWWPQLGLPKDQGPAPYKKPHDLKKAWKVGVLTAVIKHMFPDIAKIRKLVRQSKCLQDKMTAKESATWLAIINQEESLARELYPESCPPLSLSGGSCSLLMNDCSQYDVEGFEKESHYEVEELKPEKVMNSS
The description is as above. Conditions: protein: recombinant; tags: N-terminal His6 (pET-28a); chain copies: 2; label: 3' biotin on forward strand; blunt.

Where [5] appears, read: label: 3' biotin on forward strand, blunt.

The Kd is the free concentration of one partner at which half of the binding sites on the other are occupied at equilibrium, for simple one-to-one binding. In general, stoichiometry N refers to the number of molecules, sites or subunits per partner or assembly.

B1: 2EBS-S10-R (dsDNA)
DNA 1: AAGATGTATGCAAAAAAGCATACATCTT
DNA 2: AAGATGTATGCTTTTTTGCATACATCTT
Consider B1, for which, in [1] (setting [5]), the equilibrium dissociation constant (Kd) was roughly 1240 nM.

B2: 0EBS-S10 (dsDNA)
DNA 1: AAGTCGATCGCAAAAAAGCGATCGACTT
DNA 2: AAGTCGATCGCTTTTTTGCGATCGACTT
On to B2, for which the dissociation constant (Kd) in data set [1] (setting [5]) is roughly 2280 nM.

B3: 2EBS-S5 (dsDNA)
DNA 1: AAGATACATGCAGCATGTATCTT
DNA 2: AAGATACATGCTGCATGTATCTT
B3: the binding signal in [2] was ~15 fold higher Kd than 2EBS-S10.

B4: 2EBS-S10-2 (dsDNA)
DNA 1: AAGGTACATGCAAAAAAGCATGTACCTT
DNA 2: AAGGTACATGCTTTTTTGCATGTACCTT
Take B4: the binding result in [1] (setting [5]) was “binds”.

B5: 1EBS-S10 (dsDNA)
DNA 1: AAGATACATGCAAAAAAGCGATCGACTT
DNA 2: AAGTCGATCGCTTTTTTGCATGTATCTT
Turning to B5, in data set [1] (setting [5]), the Kd was roughly 690 nM.

B6: 2EBS-S8 (dsDNA)
DNA 1: AAGATACATGCAAAAGCATGTATCTT
DNA 2: AAGATACATGCTTTTGCATGTATCTT
With B6, the binding signal in [2] was ~3 fold higher Kd than 2EBS-S10.

B7: 2EBS-S10-36 (dsDNA)
DNA 1: TGAAGATACATGCAATTAAGCATGTATCTTGAATCC
DNA 2: GGATTCAAGATACATGCTTAATTGCATGTATCTTCA
For the molecule B7, in [3], the binding result was “binds”.

B8: EIN3 82–352 (optimal DNA-binding domain of Arabidopsis ETHYLENE …3) (domain or fragment, UniProt O24606 82-352, looked up)
chain: T1 sequence
notes: numbering based on UniProt O24606; Cloned into NheI/BamHI of pET-28a; Printed predicted Mw: monomer 31.29 kDa, dimer 62.58 kDa; also called optimal DBD; EIN3 truncation 82–352; source: E. coli Transetta (DE3), purified (Ni-NTA, Superdex 75 size exclusion)
As for B8, in data set [4], the “stoichiometry N” value worked out at 2.

B9: 2EBS-S10 (dsDNA)
DNA 1: AAGATACATGCAAAAAAGCATGTATCTT
DNA 2: AAGATACATGCTTTTTTGCATGTATCTT
Consider B9, for which the Kd in data set [1] (setting [5]) is roughly 110 nM.

B10: ERF1 (dsDNA)
DNA 1: GTTGTTTGGGATTCAAGGGGCATGTATCTTGAATCC
DNA 2: GGATTCAAGATACATGCCCCTTGAATCCCAAACAAC
In the case of B10, the binding result (in the data set with EIN3 68-352; in the data set with EIN3 91-352; with EIN3 98-352; in data set [1] (setting [5]); with EIN3 82-352 P216S; with EIN3 1-352) was “binds” each time.

B11: 2EBS-S10-F (ssDNA)
DNA: AAGATACATGCAAAAAAGCATGTATCTT
B11: in [1] (label: 3' biotin, single strand), the binding result was “no binding”.
